Test in all cases: purified protein
Substrate in series [1]: Cc1cn([C@H]2C[C@H](O)[C@@H](CO)O2)c(=O)nc1N
The conditions noted are these: 30 °C, 5mdC 1-100 mM.

Substrate in series [2]: Nc1ccn([C@@H]2O[C@H](CO)[C@@H](O)[C@H]2O)c(=O)n1
As to conditions: 30 °C, C 0.1-10 mM.

Substrate in series [3]: CO[C@@H]1[C@H](O)[C@@H](CO)O[C@H]1n1ccc(N)nc1=O
The conditions noted are these: 30 °C, 2OmC 1-200 mM.

Substrate in series [4]: Nc1ccn([C@H]2C[C@H](O)[C@@H](CO)O2)c(=O)n1
As to conditions: 30 °C, dC 0.05-5 mM.

Substrate in series [5]: Cc1cn([C@@H]2O[C@H](CO)[C@@H](O)[C@H]2O)c(=O)nc1N
As to conditions: 30 °C, 5mC 1-200 mM.

Among the data in publication PMC10415118 are Km, kcat and kcat/Km values, retold here.

As usually defined, the Km is the concentration of substrate that gives half-maximal velocity. By kcat is commonly meant the number of substrate molecules converted per active site and unit of time at saturation. The kcat/Km is the second-order rate constant that governs catalysis at low substrate concentration.

B1: CDA (AtCDA; CYTIDINE DEAMINASE; CDA-Strep) (Arabidopsis thaliana) (protein)
chain: MDKPSFVIQSKEAESAAKQLGVSVIQLLPSLVKPAQSYARTPISKFNVAVVGLGSSGRIFLGVNVEFPNLPLHHSIHAEQFLVTNLTLNGERHLNFFAVSAAPCGHCRQFLQEIRDAPEIKILITDPNNSADSDSAADSDGFLRLGSFLPHRFGPDDLLGKDHPLLLESHDNHLKISDLDSICNGNTDSSADLKQTALAAANRSYAPYSLCPSGVSLVDCDGKVYRGWYMESAAYNPSMGPVQAALVDYVANGGGGGYERIVGAVLVEKEDAVVRQEHTARLLLETISPKCEFKVFHCYEA
On to B1, for which the Km was determined as 3.92 ± 0.61 mM in series [1]; 0.82 ± 0.15 mM in series [2]; 8.34 ± 1.12 mM in series [3]; 0.28 ± 0.05 mM in series [4]; 8.05 ± 0.96 mM in series [5]. Besides, the kcat in series [1] was found to be 54.1 ± 1.68 s⁻¹; in series [2] it was 29.4 ± 1.65 s⁻¹; in series [3] it was 35.5 ± 1.12 s⁻¹; in series [4], 18.1 ± 0.66 s⁻¹; in series [5], 35.4 ± 1.04 s⁻¹. Moreover, the kcat/Km in series [1] turned out to be 13800 M⁻¹ s⁻¹; in series [2], 35900 M⁻¹ s⁻¹; in series [3] it was 4300 M⁻¹ s⁻¹; in series [4], 64800 M⁻¹ s⁻¹; in series [5], 4400 M⁻¹ s⁻¹.
